Data published in the DeepSol protein solubility set.

Experiment: soluble on expression in E. coli; label from the status in PepcDB or PDB records

| Sequence | soluble on expression in E. coli |
| --- | --- |
| MGSDKIHHHHHHMTEAHNACCHPSGTAAGHHGAGKASTDMMDAVDRRLLDIIQTGFPIEPRPYAVLGETLGITECEALARVRALRERKVIRRLGANFDSWKLGFRSTLCAAKVPEDRIDAFVAEVNRHVNVTHNYLRNHEYNIWFTCICPSWEQVCSLLDGITERTGIPILNLPATKLYKIRVDFRMD | not soluble |
| MATFGFLSAPLKSTNEVDLVKPLTSYIDNVYNTSDNNRSDVAEAVQELNKLRSKACCQPLDKHQSALDVLTRYYDQLVAIENKIIISATQNPVVFKWKDAFDKGSLFSSRASLSLSDGSFERAAVLFNIGSLMSQIGAAQQFHTDDEIKVSAKLFQQSAGVFARLRDVVLGMVQQEPTPDLMPDTLAALSALMTAQAQEAIYIKGHKDKMKATSMVKISAQVAEFYSEAQKMMSKDIVRGLWDKDWSAIVSGKNLAYQALAQYHQSEVCGEARQIGEQLSRLAESLKLFDTAQKYLPRDITGIWDIYPSVSKAHAAAKKDNDFIYHEKVSDFRTLPTLPKAVLAKPTPMQTPMTPSFRDMFAVLVPVQVHNAMQSYDARKAELVNMETVRMREATQLMNGVLASLNLPAALDDVTSTETLPESLKLKSAKLKQNGGSSEIMRLFSELPTLYQRNEDILTETSRILNEEKESDDTMRKQLGTKWTRMSSEQLTGPLVTEIGKYRGILHTASNADKMVKEKFESHRQGIELLSKNESELRSSIPGQTAHATGETDTVRQLRQFMSQWNEVTTDRELLEKELKNTNCDIANDFLKAMAENQLINEEHISKEKIAQIFGDLKRRVQSSLDTQETLMNQIQAANNTFTGEKTGSSTGAERERILKMLAQASDAYVELKANLEEGTKFYNDLTPILVRLQQKVSDFAFARQTEKEDLMRQLQLSIVSGTNAAQSPANAPPRPPPPRPAAPSVESPIPPPRTQQSMQATPGAPPQYNPYQQQQQPQMQQFQQHPGYYQQPMPYGQPQPMFQPQYQPTFAAPYPTFPGAFPSYQQQWPQQQQQGGFPPNPQFGQQNQQQGGGGGANPFQ | not soluble |
| MGSDKIHHHHHHLTKKITEFQNDEEMELFVLIKSAEKRVTKAGKDFISMKFQDRSGDIHGNCWDAKEEDFKNFQPGRVVLLRGKRETYKNAPQVKIMAMRLATDEEPNDPTAYTEKGPVSAEKLREEFTQLMFEINNPDWNRVVRYLLKKYDREFFSFPAAKTNHHAFEGGLAFHTLSIVNLAKSVAAQYEQVDQSLLIAGAILHDLGKTIELSGPIATQYTVEGNLLGHIVIVDEEIVEAAKDLKIDPSSESMVVLRHMIVAHHGLKEYGSPVEPHMLEAVILHALDELDAEIQMVSGALKNTQPGAFSERIFGMDGRNFYKPESK | not soluble |
| MGAVVVKDLRKRIGKKEILKGISFEIEEGEIFGLIGPNGAGKTTTLRIISTLIKPSSGIVTVFGKNVVEEPHEVRKLISYLPEEAGAYRNMQGIEYLRFVAGFYASSSSEIEEMVERATEIAGLGEKIKDRVSTYSKGMVRKLLIARALMVNPRLAILDEPTSGLDVLNAREVRKILKQASQEGLTILVSSHNMLEVEFLCDRIALIHNGTIVETGTVEELKERYKAQNIEEVFEEVVKCSENF | not soluble |
| MDFAVMKQVKNTGLLQSEELCQYILRTSVYPREAGFLKELREANESHPDSYMSTSPLAGQLMSFVLKLVNAKKTIEVGVFTGYSLLLTALSIPDDGKITAIDFDREAYEIGLPFIRKAGVEHKINFIESDAMLALDNLLQGQESEGSYDFGFVDADKPNYIKYHERLMKLVKVGGIVAYDNTLWGGTVAQPESEVPDFMKENREAVIELNKLLAADPRIEIVHLPLGDGITFCRRLY | soluble |
| MSNTERTFIAIKPDGVHRGLVGKIIARFEERGYKLVALKQMTASKAHLEVHYQDLKDKPFFPSLIEYMSSGPVVAMVWQGLDVVKQGRSMLGATNPLASAPGTIRGDFCIQTGRNICHGSDAVDSANREIAHWFKQEEINDYASPFINSWVYE | not soluble |
| MSLAKGIMLHEVGEQVDQYLLIKSSTKGIASNGKPFLTLMLQDQSGDIEAKLWDAKQSDEVTYAPQTIVKVVGDVHHYRGRTQLKLRNIRPVSEQENVNIDDFLETAPIPKNEMMDTITQYIFEMKNPNIQRITRFLVKKHEAEFMDYPAATKNHHEFVSGLAYHVVSMLNLAKAIADLYPSLDRDLLYAGVILHDLGKVKELSGPVSTSYTVEGNLLGHISIMVTELSKAAEELQIDSEEVLILQHLILSHHGKAEWGSPKPPMVKEAEILHYIDNLDAKMNMMDRALERVKPGEYTERVFALENRSFYKPTFHKEGGSHHHHHH | soluble |
| MSTVVSEGRNDGNNRYSPQDEVEDRLPDVVDNRLTENMRVPSFERLPSPTPRYFGSCKWFNVSKGYGFVIDDITGEDLFVHQSNLNMQGFRSLDEGERVSYYIQERSNGKGREAYAVSGEVEGQGLKGSRIHPLGRKKAVSLRCFRCGKFATHKAKSCPNVKTDAKVCYTCGSEEHVSSICPERRRKHRPEQVAAEEAEAARMAAEKSSPTTSDDDIREKNSNSSDE | not soluble |
| SLQEAETAARLHEVHGSWQLACAAAAKKDSADAASSTGGETKPPCAIAQVQLEEKTRKLVVSVEFRLDDAATPDRLNGTMVLPFGLAVTKLFSVKSGNMRLQEVQVSTCLPVGCIVSFTPFIELVSALKAEQTLTIEAPDLQGRIVSFQLQGKGFPEALKRLGEVR | not soluble |
| MGHHHHHHSHMSVMFDPDTAIYPFPPKPTPLSIDEKAYYREKIKRLLKERNAVMVAHYYTDPEIQQLAEETGGCISDSLEMARFGAKHPASTLLVAGVRFMGETAKILSPEKTILMPTLQAECSLDLGCPVEEFNAFCDAHPDRTVVVYANTSAAVKARADWVVTSSIAVELIDHLDSLGEKIIWAPDKHLGRYVQKQTGGDILCWQGACIVHDEFKTQALTRLQEEYPDAAILVHPESPQAIVDMADAVGSTSQLIAAAKTLPHQRLIVATDRGIFYKMQQAVPDKELLEAPTAGEGATCRSCAHCPWMAMNGLQAIAEALEQEGSNHEVHVDERLRERALVPLNRMLDFAATLRG | soluble |
| RHRCIGLTVETKPDWFFEREIDEALAYGTTKVELGVQNIDDRILAINNRGHTVADIARSTQLARDAGLKIVYHIMPGMYGSSFEKDLKSFDLMINDERFKPDMLKIYPTLVTQGTGLYNLWKNGKYRPYTTAETVDLIVEFMRRMPDWIRIQRIQR | not soluble |
| MLSEERVKELLKKLKDLKILVVGDVILDTYLYGNVERISPEAPVPVLEVEGEEFRLGGAGNVAKNLSSLGVETYLCGVVGKDEAGKRLRELIEGNSIRSFLIEDERPTTKKTRVVSRNQQLLRIDWEDRSYISGKALEKILDVIKNLQVDGIIVSDYAKGVITEEVIKTIREKGVFYSVDPRPKHRELYRKAYLMTPNEKELREMSKFEGSVEELGKKLKEELELETLIVTRGEKGMSLFTEKGVKHFPARARKVYDVTGAGDTVIASITAFKLAGATWEECCELGNVCGGIVVGEFGTATVTPEKLLKAVKLNS | not soluble |
| GSGEQHFAEGHEQAFTGKESAAMKDVVSGHATHEAGKSTTAQPTETRSTSESSHSLRDSIMAQVRDAVTTREPNGNGRISIRLNPVELGELTINVRVADQQVKVDVVAANGQVRDILLNNLDNLKENFSRQNLTMTGFDVSTGT | not soluble |
| QTVVTGKVIDSETSEPLIGVSVSTGQGASLRGVTTDMDGGFRFEVPAKSVLTFRCVGYATVTRSIGRGSQEDLGTILLDPQAIGLDEIQVIASVVPKDRMTPVPVSNIRVADIQAASLNVEFPELVKSTPSTYTTKGSGGFGDGRTNVRGFDTYNFGVLINGVPVNGMEDGKVYWSNWSGLMNQASTIQIQRGLGASKLGISSVGGTMNIITKTTDANTGGSAYVGMGNDGLHKESFSISTGMND | not soluble |
| MVRSMLYATDLGLYAPYVMQHALALARTFDAGLYVVHVVEPMGLFAESVLQSYLGEEALQELHGKGAHAFMEGIEQRMLDGFREELGEGHSDLSLIRTVRVVQGEPASVIIEQAHKLEVDLLVLGRHSASAQEGASIGRTAARILQSSGVPVYMVPIMSKALCQKGC | not soluble |
| MSLTLEDIARKLNISKNAVSLALANKPGVSEKTRQLVFQTAKELGYKFKEKEEQKGTIALIMTKNIIEDPYFFSAIVYSVENEIRKEGYDFSLYCISSEDEWNIEEILTSSSFEGIIIVSAISENVIKKIEEKKIPTVVIDNLVDSTCIDTVNTDNYRSTKAAIEYLIKQGFKHIGFIGDVNHAISYRERWEGFMAAHEEFDIEIDKKVCKIEGFKDFSKNPEPEIQAFLKSLEKMPQAFFCVSDLSTLLTASVLKEMGFQIPKDVSIVGFDDIELVKHFKPALSMIHIDRNYYGQRAVKQLLERIKCPNKPVEDVRIFCRLNIRKSIRAEGHHHHHH | not soluble |
| MLINKTKRAEQNLNNLPFLALQAEQIEFLGSSAEFKTQIIELIRNAKKRIYVTALYWQKDEAGQEILDEIYRVKQENPHLDVKVLIDWHRAQRNLLGAEKSATNADWYCEQRQTYQLPDDPNMFFGVPINTREVFGVLHVKGFVFDDTVLYSGASINNVYLHQFEKYRYDRYQKITHAELADSMVNFINDYLLDFSAVYPLDVTNRPRTKEIRGNIRAYRKDLAQNGEYSLKSAVKLPNVLSVSPLFGLGASGNELNQVIEDLFLQVQKKLVICTPYFNFPRTLQHKIATLLENGKRVEIIVGDKVANDFYIPPEQPFKMAGALPYLYESNLRRFCEKFETQIESGQLVVRLWRDGDNTYHLKGVWVDDRYILLTGNNLNPRAWRLDAENGLLIYDPQQQLLAQVEKEQNQIRQHTKVLKHYTELEELNQYPEPVQKLLKKFARIKADKLVKMILAAALEHHHHHH | soluble |
| GPGSPSEENEGRQFIVCYYLADDTVSVFELQVPNSGHVGGKIFARRAVENLQDPTLLKVGNTIRLDGVDYLLKEMDERTKRYLEMGMPNMDESYFRTQEILGIAASYLQQQFSRITDAFRHYASSSTQGLTRENVREMLSDAGVHATDAELTNVMERADGDKDGWVSLADFTEQFMQQLFISNFKPRESQKRWGDTRNGVVVQRG | soluble |
| MPQEKMARLYNLNYTIASQVNPHVVPFMQSDASRYRKDILSWPQRILRRQGKVISLGIMDFTRERLGNVPPVRRLLDHGYGIVGQRYYGDVNIIAPFNLRQYAYMLQNPRPHLFKLLQQQGERATWPKISAIETHARIGKTIQHCIEVLDYQKNRYIQAEKASALEHHHHHH | not soluble |
| NAKKPTMQLSDSGVDILIGSASYEGGELVLPTSITNQSSQSVIQVEVEVQVFDMSGKQLAKEKVTVWQSIKRMADTYLRPQQAEQGKSIKLAVPQSQQYQFSAKVLEVKTR | not soluble |
| MGSDKIHHHHHHMRNSLLVFTLDCQVKIDSKTVDCQTNIDSFLTPNSNLIIVEVEEIKRILLDQESFLNDKLRKERIITRHYNYSITYNNAYLITGPRRAGKSIFTVQLTKGKEILRVDFDDERLSGIKANELNKFLEAGYQIKKKIEVIILDEIQNVKGWELFVSRIREIYPVIVTGSNARLMSSEMATYLTGRHMDFLVFPFSFKEYLRYKDVKVEETTRGIARLKEELRNYLQQGGFPETFKFDKNEYLRNLYSDIITRDVIIRCKTRKDVKGLADFLLENIGKEVSTRRVGNAFNLSHQSVENYFYCLSNAYLFLFVKRFTGKSLERYTLPRKVYVIDTGLFNTYKRLQMGKMIENLVFLELYKRYGQEVYYYSNGNAEVDFIIKDKFAIQVTYDEGGIDDREYKGLVRFSERFKDYKLIIITWDREGKEIRNGKEITLIPLWKFLVKERFAGEMIGKES | not soluble |
